test: yeast display, Sf9 membrane polyspecificity reagent, FACS + sequencing; frameworks hold sequencing errors
In short: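 A synthetic nanobody library was expressed on Saccharomyces cerevisiae BJ5465 by galactose induction for 36–48 hours. The library was stained for 1 hour at 4 °C with 10% biotinylated, detergent-solubilized Sf9 membrane reagent and enriched with streptavidin microbeads before FACS. Low and high (top ~1%) gates were set on anti-HA fluorescence for expression and streptavidin fluorescence for reagent binding, and each polyreactivity label reflects the gate of origin.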

Sequence | polyreactivity (PSR sort gate)
QVQLVESGGGLVQAGGSLRLSCAASGSTFYIYAMGWSRQAPGKERELVARISGSGGSTYYADSVKGRFTISRDNAKNTVYLQMNSLKPEDTAVYYCAADDIYKYYQYYAFPYYRYDYWGQGTQVTVSS | low polyreactivity
QVQLVESGGGLVQAGGSLRLSCAASGSTFYIYAMGWYRQAPGKERELVAVITRRGGSTSYADSVKGRFTISRDNAKNTVYLQINSLKPEDTAVYYCAAKRTWPDVKYIRYGYWGQGTQVTVSS | high polyreactivity
QVQLVESGGGLVQAGGSLRLSCAASGSTFYIYAMGWYRQAPGKERELVAVITRRGGSTSYADSVKGRFTISRDNAKNTVYLQMNSLKPEDTAVYYCAAKRTWPDVKYIRYGYWGQGAQVTVSS | high polyreactivity
QVQLVESGGGLVQAGGSLRLSCAASGSTFYIYAMVWYRQAPGKERELVAAITGTGGSTYYADSVKGRFTISRDNAKNSVYLQMNSLKPEDTAVYYCAVGFGYYYKYGYWGQGTQVTVSS | low polyreactivity
QVQLVESGGGLVQAGGSLRLSCAASGSTFYKNAMGWNRQAPGKERELVASISRSGGSTSYADSVKGRFTISRDNAKNTVYLQMNSLKPEDTAVYYCAATWRQHPGSMGYWGQGTQVTVSS | high polyreactivity
QVQLVESGGGLVQAGGSLRLSCAASGSTFYKNAMGWYRQAPGKERELVAVINASGDSTYYADSVKGRFTISRDNAKNTVYLQMNSLKPEDTAVYYCAADHRGEYDYWGQGTQVTVSS | low polyreactivity
QVQLVESGGGLVQAGGSLRLSCAASGSTFYKYAMGWSRQAPGKERELVASITGGTRTYYADSVKGRFTISRDNAKNTVYLQMNSLKPEDTAVYYCNVVGGRYLYSAYDYWGQGTQVTVSS | low polyreactivity
QVQLVESGGGLVQAGGSLRLSCAASGSTFYKYAMGWYRQAPGIEPELVAAISRGGSTYYADSVKGRFTISRDNAKNTVYLQMNSLKPEDTAVYYCAAETVSYYSKYDYWGQGTQVTVSS | low polyreactivity
QVQLVESGGGLVQAGGSLRLSCAASGSTFYLNAMGWYRQAPGKERELVATKNSSGSTYNADSVKGRFTISRDNAKNTVYLQMNILKPEDTAVYYCNAYGSDRLSLDDYWGQGTQVTVSS | low polyreactivity
QVQLVESGGGLVQAGGSLRLSCAASGSTFYLNVMGWYRQAPGKERELVAAISSGDGSTYYADSVKGRFTISRDNAKNTVYLQMNSLKPEDTAVYYCAAEPDTEVDYDYWGQGTQVTVSS | low polyreactivity
QVQLVESGGGLVQAGGSLRLSCAASGSTFYPNAKGWYRQAPGKDREFVAASSTSAGRTYYADSVKGRFTISRDNAKKTVYLQINSLKPEDTAVYYCNARYWVYYVYEYDSWGQGTQVTVSS | low polyreactivity
QVQLVESGGGLVQAGGSLRLSCAASGSTFYPNAMGWYRQAPGKERELVAAISRGTRTKYADSVKGRFTISRDNAMNTVYLQMNSLKPEDTAVYYCAADTGTGLDWGQGTQVTVSS | high polyreactivity
QVQLVESGGGLVQAGGSLRLSCAASGSTFYPNAMGWYRQAPGKERELVAAITGGGSTTYADSVKGRFTISRDNAKNTVYLQMNSLKQEDTAVYYCNTDGPRYARPYDSWGQGTQVTVSS | low polyreactivity
QVQLVESGGGLVQAGGSLRLSCAASGSTFYPTYAMGWYRQAPGKERELVATITGSGGSTYYADSVKGRFTISRDNAKNTVYLQMNSLKPEDTAVYYCAADRWYSRYTRYGYWGQGTQVTVSS | low polyreactivity
QVQLVESGGGLVQAGGSLRLSCAASGSTFYPYAKGWYRQAPRKERELVATITNSGGSTYYADSVKGRFTISRDNAKNTVYLQMNSLKPEDTAVYYCARVRSRNTGYYYWGQGTQVTVSS | high polyreactivity
QVQLVESGGGLVQAGGSLRLSCAASGSTFYPYAMGWYRQAPGKEREFVAGISRSGGTTYYADSLKGRFTISRDNAKNTVYLQMNSLKPEDTAVYYCAVQIPYVYWSYDYWGQGTEVTVSS | low polyreactivity
QVQLVESGGGLVQAGGSLRLSCAASGSTFYPYAMGWYRQAPGKERELVAAITTRGRTYYGDSVKGRFTISRDNAKYTVYLQMNSLKPEDTAVYYCNARRYFSRDTSGYNYWGQGTQVTVSS | high polyreactivity
QVQLVESGGGLVQAGGSLRLSCAASGSTFYPYVMGWYRQAPGKERELVAGISYRGGITYYADSVKGRFTISRDYAKNTVYLQMNSLKPEDTAVYYCAADYWSVYLARKMDYWGQGTQVTVSS | low polyreactivity
QVQLVESGGGLVQAGGSLRLSCAASGSTFYRNAMGWYRQAPGKERELVAGISRRGGSTYYADSVKGRFTISRDNAKNTVYLQMNSLKPEDTAVYYCNADYPGIPHNDYWGQGTQVTVSS | low polyreactivity
QVQLVESGGGLVQAGGSLRLSCAASGSTFYRNVMGWYRQAPGKERELVAAISSGGSTYYADSVKGRFTISRDNAKNTVYLQMNSLKPEDTAVYYCARRLTREYDYWGQGTQVTVSS | low polyreactivity
QVQLVESGGGLVQAGGSLRLSCAASGSTFYRYALGWYRQAPGKERELVAAISRSGGNTFYADSVKGRFTISRDNAKNTVYLQMNRLKPEDTAVYYCAALRSWYAQTSGMDYWGQGTHVTVSS | high polyreactivity

Sequence | polyreactivity (PSR sort gate)
QVQLVESGGGLVQAGGSLRLSCAASGSTFYRYAMGWYRQAPGKERELVAAISSDGTTYYADSVKGRFTISRDNAKNTVYLQMNSLKPEDTAVYYCAKRGYYRSRRYDYWGQGTQVTVSS | high polyreactivity
QVQLVESGGGLVQAGGSLRLSCAASGSTFYRYAMGWYRQAPGKERELVAAISYRGGSTYYADSVKGRFTISRDNAKNTVYLQMNSLKPEDTAVYYCNKRSTRRYDYWGQGTQETVSS | high polyreactivity
QVQLVESGGGLVQAGGSLRLSCAASGSTFYRYAMGWYRQAPGKERELVAGISSSGGSTYYADSVKGRFTISRDNAKNTVYLQMNSLKPEDTAVYYCAAVGQWGYGYWGQGTQVTVSS | high polyreactivity
QVQLVESGGGLVQAGGSLRLSCAASGSTFYRYAMGWYRQAPGKERELVATISGGGRTNYADSVKGRFTISRDNAKNTVYLQMNCLKPEDTAVYYCAARGYTGRFSRVNVPFYYWGQGTQVTVSS | high polyreactivity
QVQLVESGGGLVQAGGSLRLSCAASGSTFYSNAMGWDRQAPGKERELVASISWSSGSTYYADSVKGRFTISRDNAKNTVYLQMNSLKPEDTAVYYCATDAGGPYRFGYWGQGTQVTVSS | low polyreactivity
QVQLVESGGGLVQAGGSLRLSCAASGSTFYSNAMGWYRQAPGKERELVAGIDTSDGSTNYADSVKGRITISRDNAKNTVYLQMNSLKPEDTAVYYCNTTLRDSRQYVDRAPYTRYDYWGQGTQVTVSS | low polyreactivity
QVQLVESGGGLVQAGGSLRLSCAASGSTFYSNPMGWSRQAPGKESEFVAAISWSGGSTYYADSVKGRFTISRDNAKNSVYFQMYSLKPQDTAVYSCAKKPYYYAYGGYGYWGQGNQVTVSS | high polyreactivity
QVQLVESGGGLVQAGGSLRLSCAASGSTFYSYAMGWYRQAPGKERELVAAIDWSGDNTNYADSVKGRFTISRDNAKNTVYLQMNSLKPEDTAVYYCAADWYYTRRRYNYWGQGTQVTVSS | low polyreactivity
QVQLVESGGGLVQAGGSLRLSCAASGSTFYSYAMGWYRQAPGKERELVAAIDWSGTSTYYADSVKGRFTISRDNAKNTVYLQMNSLKPEDTAVYYCAARYTRGGSGPDYNYWGQGTQVTVSS | high polyreactivity
QVQLVESGGGLVQAGGSLRLSCAASGSTFYSYAMGWYRQAPGKERELVAAISSSGGRTRYADSVKGRFTISRDNAKNTVYLQMNSLKPEDTAVYYCAARNRVRVGTRIGRIDEDYWGQGTQVTVSS | high polyreactivity
QVQLVESGGGLVQAGGSLRLSCAASGSTFYTNAKGWYRQAPGKEREFVAAISWAGSSTYADSVKGRFTISRDNAKTTVYLQMHSLKPEDTAVYYCNADVLDGGYDYWGQGTQVTVSS | low polyreactivity
QVQLVESGGGLVQAGGSLRLSCAASGSTFYTNAMGWYRQAPGKEREFVAAISWSGSSTYADSVKGRFTISRDNAKNTVYLQMNSLKPEDTAVYYCSADWFKLRTDYYWGQGTQVTVSS | low polyreactivity
QVQLVESGGGLVQAGGSLRLSCAASGSTFYTYAMGWSRPAPGKERELVAAINWIGDSTYYADSVKGRFTISRDNAKNTVYLQMNSLKPEDTAVYYCAADFTLGSRTEGLHMDYWGQGTQVTVSS | high polyreactivity
QVQLVESGGGLVQAGGSLRLSCAASGSTFYTYTAMGWYRQAPGKERELVAAITWRGGSTYYADSVKGRFTISRDNAKNTVYLHMNRLKPEDTSGYYCAADCVMTWWAYDYWGQGTQVTVSS | high polyreactivity
QVQLVESGGGLVQAGGSLRLSCAASGSTFYTYTMGWYRPGPGKEMELVAAISSSGGDTYYADSVKGRFTISRDNAKNTVYLQMNSLKPEDTAVYYCAALGAFPSLEFDYWGQGTQVTVSS | low polyreactivity
QVQLVESGGGLVQAGGSLRLSCAASGSTFYVNAMGSYRQAPGQERELVAAIRSSAGNTTYADSVKGRFTISRDNAKNTVYLQMNSLKPEETAVYYCAADSRPYLRDYWGQGTQVTVSS | low polyreactivity
QVQLVESGGGLVQAGGSLRLSCAASGSTFYVNAMGWYRQAPGKDRELVAVISTGGSTYYADSVKGRFTISRDNAKNTVYLQMNSLKPEDTAVYYCAKRDLPDRSGTPNVIPFDYWGQGTQVTVSS | low polyreactivity
QVQLVESGGGLVQAGGSLRLSCAASGSTFYVNAMGWYRQAPGKERELVAAISRRGGSTYYADSVKGRFTISRDNAKNTVYLQMNSLKPEDTAVYYCNVVPVWRPYSLINWQKHFGYWGQGTQVTVSS | high polyreactivity
QVQLVESGGGLVQAGGSLRLSCAASGSTFYVNAMGWYRQAPGKERELVAGISYNAGSTYYADSVKGRFTISRDNAKNTVSLQMNSLKPEDTAVYYCAAYPYWRWYGYLGYDYWGQGTQVTVSS | low polyreactivity
QVQLVESGGGLVQAGGSLRLSCAASGSTFYVNAMGWYRQTPGKERELVATIPSGSITDYADSVKGRFTISRDNAKNTVYLQMNSLKPEDTAVYYCAKTYVQEHGVDYWGQGTQVTVSS | low polyreactivity
